Experimental data from patent US20240174746A1 (Alector, published 2024).
Residue numbers refer to the chain shown, from its start.

B1: TM-63 (antibody, V domains shown)
VH: QVQLQQPGAELVKFGASVKLSCKASGYTFTSFWMHWVKQRPGQGLEWIGNIDPSDSETHYSQKFKDKATLTVDRSSNTAYIQLSSLTSEDSAVYYCARSSNWDNFDYWGQGTTVTVSS
VL: DIVMTQASPSVSVTPGESVSISCRSSQSLLHVNGNTYLYWFLQRPGRSPRLLIYRMSNLASGVPDRFSGSGSGTAFTLRISRVEAEDVGVYYCMQHLQYPFSFGSGTKLEMK
notes: Purified from mouse hybridoma
B2: TM-64 (antibody, V domains shown)
VH: QVQLQQPGAELVKPGASVKLSCKASGYTFTSYWMHWVKQRPGHGLEWIGNIDPSDSDTHYNQNFRGKATLTVDKFSTTAYMHLSSLTSEDSAVYYCARSRGGTYDYGEAMDYWGQGTSVTVSS
VL: B1 VL with S8A, S12P, Q27K, V32T, Y39F, R50Q, Q98E, S102T, M111I
notes: Purified from mouse hybridoma
B3: TM-61 (antibody, V domains shown)
VH: QVQLQQSGAELAKPGASVKLSCKASGYTFTNYWMNWVKQRPGQGLEWIGYINPSSDYTKYNQNFKDKATLTADKSSSTAYMQLNSLTYEDSAVYYCTRWGGSRSYWYFDVWGAGTTVTVSS
VL: DIVMTQSPSSLSASAGEKVTMSCKSSQSLLNSGNQKNYLAWYQQKPGQSPKLLIYGASTRESGVPDRFTGSGSGTDFTLTISSVQAEDLAVYYCQNDSNYPFTFGGGTKLEMK
notes: Purified from mouse hybridoma
B4: TM-54 (antibody, V domains shown)
VH: QVQMQQSGPVLVKPGASVTLSCKASGYTFTTYDLNWVKQRPGQGLEWIGWIYPRGGSTEYNEKFKGKATLTVDTSSSTAYMELHSLTSEDSAVYFCAKYSIYAMDYWGQGTSVTVSS
VL: DVLMTQTPLSLPVSLGDQASISCRSSQSIVHGNGNTYLEWYLQKPGQSPKLLIYKVSNRFSGVPDRFSGSGSGTDFTLKISRVEAEDLGVYYCFQGSHVPWTFGGGTKLEMK
notes: Purified from mouse hybridoma
B5: TM-90 (antibody, V domains shown)
VH: QVHLQQSGPELVKPGASVKLSCKASGYPFTSYDINWVKQRPGQGLEWIGWIYPRDGNAKYNEKFKGKATLTVDTSSSTAYMELHSLTSENSAVYFCARVSDYHGGYGMDYWGQGTSVTVSS
VL: B4 VL with I29F, N58H, S81T, G96N, W101H, M111I
notes: Purified from mouse hybridoma
B6: TM-60 (antibody, V domains shown)
VH: QVQLQQSGPELVKPGASVKLSCKASGYTFTSYDINWVKQRPGQGLEWIGWIYPRDGNTQYIEKLKGKATLTVDTSSSTAYMELHSLTSEDSAVYFCARWIFYAMDYWGQGTSVTVSS
VL: B4 VL with V99L, W101Y, M111I
notes: Purified from mouse hybridoma
B7: TM-65 (antibody, V domains shown)
VH: QVQLQQPGAEFVKPGASVRLSCKTSGYTFTSSWMHWVKQRPGQGLEWIGEINPKNGGTNYNEKFKTKATLTVDKSSNTAYMQLSSLTSEDSAVYYCTIPTWFTYWGQGTLVTVSS
VL: DIQMNQSPSSLSASLGDTITITCRASQNINIWLSWYQQKPGNVPKLLIYKASNLHTGVPSRFSGSGSGTGFTLTISSLQPEDIATYYCLQGQSYPYTFGGGTKLGIK
notes: Purified from mouse hybridoma
B8: TM-82 (antibody, V domains shown)
VH: QVQLQQSGAELVRPGTSVRVSCKASGYAFTNYLIEWIKQRPGQGLEWIGVINPGSGITDYSEKFKGKARLTADKSSSTAYMQLSSLTSDDSAVYFCTRSPFITTVVADYWGQGTTVTVSS
VL: DVVVTQTPLSLPVSFGDQVSISCRSSQSLANTYGNTYLSWYLHTPGQSPQLLIFGISNRFSGVPDRFSGSGSGTDFTLKISTIKPEDLGVYYCLQGTHPPRTFGGGTKLEMK
notes: Purified from mouse hybridoma
B9: TM-62 (antibody, V domains shown)
VH: QVQLQQPGTELVRPGSSVKLSCKAAGYTFTRYWMHWVKQRPIQGLEWIGNIDPSDSETQYNPKFKDKATLTVDRSSSTAYMHLSSLTSEDSAVYYCARLTTLDYAMDYWGQGTSVTVSS
VL: QIVLTQSPAIMSASPGEKVTISCSASSSVSYMYWYQQKAGSSPKPWIHRTSNLASGVPARFSGSGSGTSYSLTIRSMEAEDAATYYCQQYHSYPPTFGVGTKLELK
notes: Purified from mouse hybridoma
B10: TM-66 (antibody, V domains shown)
VH: EVMLVESGGALVEPGGSLKLSCAASGITFSNYAMSWIRQTPEKRLEWVATIGSVGSYTYYPDSVKGRFTISRDNARNTLYLQMSSLRSEDTAMYYCARQEGSSHFDYWGQGTTLTVSS
VL: DVVVTQTPPSLPVSFGDQVSISCRSSQSLVNSYGKTFLSWYLHKPGQSPQLLIYGISNRFSGVPDRFSGSGSGTVFTLKISTIKPEDLGMYYCLQGTHPPLTFGAGTKLEMK
notes: Purified from mouse hybridoma
B11: TM-72 (antibody, V domains shown)
VH: QVQLQQPGAELVKPGTSVKLSCKASGSTFTNYWMHWVMQRPGQGLEWIGNIDPSDSDTHYNQKFKDRAKLTVDKSSSTAYMQLSGLTSEDSAVYYCARSRGGYYDYGEAMDYWGQGTSVTVSS
VL: DIVMTQAAPSVPVTPGESVSISCRSSKSLLHTNGNTYLFWFIQRPGQSPHLLIYRKSNLASGVPDRFSGSGSGTAFTLRISRVEAEDVGVYYCMQHLEYPFTFGSGTKLEIK
notes: Purified from mouse hybridoma
B12: TM-59 (antibody, V domains shown)
VH: QVQLQQSGAELAKPGASVKLSCKASGYTFISYWMHWVKQRPGQGLEWIGYVNPSSGYTKNNQKFKDKATLTADKSSSTAYMQLSSLTYEDSAVYYCAREGGSISDWYFDVWGTGTTVTVSS
VL: B11 VL with T32S, L38S, F39Y, I42L, H50Q, K56M, F101Y, S105G
notes: Purified from mouse hybridoma
B13: TM-83 (antibody, V domains shown)
VH: QVQLQQPGTELVKPGALVKLSCKASGYTFTTYWIHWVKQRPGQGLEWIGNINPSNGNTKNNERFKTKATLTVDKSSSTAYMQLSSLTSEDSAVYYCVRGDYYGTSYPFWGQGTLVTVSS
VL: DVVMTQTPLSLPVSLGDQASISCRSSQSLVHSNGITYLHWYLQKPGQSPKLLIYKVSNRFSGVPDRFSGSGSGTDFTLKISRVEAEDLGVYFCSQSTHVPYTFGGGTKLEIK
notes: Purified from mouse hybridoma

target: T1, cynomolgus (cyno) TMEM106B (cynomolgus, UniProt Q9NUM4 2-274 (human entry)); assay: flow cytometry, HEK293 cells transiently transfected with cyno TMEM106B
T1 construct: Full-length cDNA transiently transfected into HEK293 cells
Protocol: (§1) For screening of the hybridoma cell culture supernatants, humanTMEM106B-transfected HEK293 cells were aliquoted in 96-well round bottom plates (2×10⁵ cells per well) and incubated with 50 μL of hybridoma cell culture supernatant on ice for 30 minutes. […] Cell sorting was performed on a FACS Canto system (BD Biosciences) or iQue (Intellicyt), with sort gates drawn to exclude dead (i.e., propidium iodide-positive) cells. Median fluorescence intensity (MFI) of anti-mouse-APC MFI on TMEM106B+ HEK293 cells was calculated for each clone, and those displaying a signal of at least 2-fold over background compared to a secondary-antibody only well were taken forward for further analysis and characterization.

| fold-change in binding over parental HEK293 cells [fold] | Binder |
| --- | --- |
| 8.24 | B1 |
| 7.12 | B2 |
| 5.15 | B3 |
| 6.27 | B4 |
| 1.32 | B5 |
| 2.63 | B6 |
| 2.15 | B7 |
| 1.49 | B8 |
| 2.93 | B9 |
| 7.13 | B10 |

target: T2, human TMEM106B (human, UniProt Q9NUM4 2-274); assay: flow cytometry, HEK293 cells transiently transfected with human TMEM106B
T2 construct: Full-length cDNA transiently transfected into HEK293 cells; also called huTMEM106B
Protocol: as §1

| fold-change in binding over parental HEK293 cells [fold] | Binder |
| --- | --- |
| 7.12 | B1 |
| 12.8 | B2 |
| 3.81 | B11 |
| 8.71 | B12 |
| 5.07 | B3 |
| 0.42 | B13 |
| 15.6 | B4 |
| 1.25 | B5 |
| 4.39 | B6 |
| 4.14 | B7 |
| 11.4 | B9 |
| 5.03 | B10 |

target: T3, mouse TMEM106B (mouse, UniProt Q80X71 2-275); assay: flow cytometry, HEK293 cells transiently transfected with murine TMEM106B
T3 construct: Full-length cDNA transiently transfected into HEK293 cells; also called muTMEM106B; murine TMEM106B
Protocol: as §1

| fold-change in binding over parental HEK293 cells [fold] | Binder |
| --- | --- |
| 0.62 | B1 |
| 1.07 | B2 |
| 0.23 | B11 |
| 0.42 | B12 |
| 0.68 | B3 |
| 9.91 | B13 |
| 1.17 | B4 |
| 0.43 | B6 |
| 1.35 | B7 |
| 0.88 | B8 |
| 0.86 | B9 |
| 4.07 | B10 |
